Measurements as given in publication PMC3602594.
Where no end group is shown, it is not given here.

Legend:
[1] = biological target: Atto647N-YidC-23C (Escherichia coli) (UniProt P25714)
[2] = biological target: Atto647N-YidC-23C (Escherichia coli) (UniProt P25714); assay: FRET or BRET; single-pair FRET by confocal microscopy with alternating laser excitation (514 nm / 635 nm); Atto520-labeled Pf3 coat protein added to Atto647N-labeled YidC reconstituted in DOPC proteoliposomes; 20 mM Tris-HCl pH 7.0, 100 mM NaCl, isopropanol from the Pf3 solution; about 0.2 nM of both labeled proteins; bursts recorded for 420 s
[3] = biological target: Atto647N-YidC-442C (Escherichia coli) (UniProt P25714); assay: as above
[4] = biological target: Atto647N-YidC-511C (Escherichia coli) (UniProt P25714); assay: as above

insertion rate k (reciprocal of the time required for a distance change from 6.2 to 4.0 nm in single-pair FRET traces), at 15, 20, 25 and 30°C; k ≈ 250 s^−1 at 15°C [1]: 500 s⁻¹ | duration of the close contact [2]: 10 ms | duration of the close contact [3]: 10 ms | duration of the close contact [4]: 10 ms
Binder: MQSVITDVTGQLTAVC(Atto520‑maleimide)ADITTIGGAIIVLAAVVLGIRWIKAQFF (natural protein) [Atto520-Pf3-16C]
